# Several values for one entry are separate records, joined by “and”; a condition that tells them apart may be missing. Equal values may be shown once. Read-outs that look alike come from different tables or passages of the source.
# B1: CpCHI: novel class IV chitinase from papaya (Carica papaya) fruit, mature form expressed in E. coli and purified on Ni-NTA (protein, listed as Carica papaya)
# chain: QNCGCAPNLCCSRFGFCGQGEAYCGEGCREGPCNKPSPTPGGGSSLAEIVTPDFFNGIINQAAAGCAGKSFCSRGGFLDAANSFPEFGKLGSVDDSKREIAAFFAHVTHETGHFCHIEEINGASHDYCDEGNTQYPCAPGKNYFGRGPIQLTWNYNYGAAGDALRLNLLGSPEMVARDAAVSFKTALWFWMKNVRPVINQGFGATIRAINGAIECNGGNPGTVQARIGYYRDYCAKFGVAPGENLSC
# Tests used:
# CpCHI = type: biochemical, Carica papaya
# Procedure: (§1) Chitinase activity was generally measured using glycol chitin as a substrate. All enzymes other than CpCHI, were purchased from Promega (Madison, Wis.). Chemicals were purchased from Merck (Darmstadt, Germany). An enzyme solution (10 μL) was added to 100 μL of 1% (w/v) glycolchitin dissolved in 90 μL of a sodium acetate buffer (100 mM, pH 5.0), and was incubated at 30° C. for 3 hours. The reducing end group produced was measured calorimetrically at 420 nm with 200 μL of a potassium ferricyanide (K3Fe(CN)6) reagent according to the method descried in Boller et al., 1983, Planta. 157, 22-31. Reduced sugar levels were determined relative to N-acetyl-β-D-glucosamine standards of 0-150 μg mL^−1. One unit of chitinase activity is defined as the amount of enzyme producing 1 μmol reducing sugar per minute at 30° C. Substrate and enzyme blanks were also prepared in which the enzyme or substrate was incubated with a buffer. All measured values of absorbency were normalized against appropriate blank absorbencies. In this example, collodial chitin and chitosan were also used as substrate for subtract specificity analysis.
# To analyze the effect of metals and other factors on chitinase activity, the enzyme was preincubated with a 10 mM of different metals and inhibitors. After 30 minutes, the remaining chitinase activity was measured in the manner described above.
# Phytophthora sp. = assay: Antifungal activity, growth / hypha extension inhibition; type: cell-based
# Procedure: (§2) The antifungal activity of recombinant chitinase protein was assessed by the hypha extension inhibition assay. Sclerotium rolfsii and Phytophthora sp. were provided from Hualien District Agricultural Research and Extension Station. Rhizoctonia solani and Alternaria brassicicola were provided by Dr. Jenn-Wen Hung of the Department of Plant Pathology of National Chung-Hsing University. A disc of each strain of fungus was removed from an actively growing fungal culture, and placed in the center of a fresh potato dextrose agar plate. After incubation at room temperature for 3 to 4 days, the recombinant chitinase or a control buffer (10 mM Tris-HCl pH7.5, 1 mM EDTA) were separately applied into a pool, which was 1 cm from the perimeter. The inhibition of the hypha extension was detected as a crescent-shaped zone of inhibition around the peripheral disc as the fungus grew out from the central disc.
# (§3) The effects of recombinant CpCHI on the growth of Phytophthora sp., Sclerotium rolsii, and Rhizoctonia solani were examined using standard methods. Disease resistance assays were carried out using detached leaves of cabbage, bell pepper, and tomato that were inoculated with each of the pathogens. Cabbage (Brassica oleracea), bell pepper (Capsicam annuum), and tomato (Solanum lycopersicum) were obtained from Known-You Seed CO., LTD. An agar plug containing the pathogen was placed on the center of leaves. At day 1 day after inoculation, the detached leaves began to show lesions surrounded by yellow halos. Then, different solutions, including H2O, a TE buffer (10 mM Tris-HCl pH 7.5, 1 mM EDTA), or 5, 10, 15 μM CpCHI in the TE buffer was sprayed onto the leaves. At day 4 after inoculation, the pathogenesis inhibition by 5, 10, or 15 μM CpCHI was about 37%, 83%, and 98%, respectively (Table 3). […] Also, recombinant CpCHI inhibited the growth of these three fungi with as little as 15 μM, and the inhibited activity lasted for 7 days.
# Rhizoctonia solani = assay: as above; type: cell-based
# Procedure: as §2, §3
# Sclerotium rolfsii [1] = assay: as above; type: cell-based
# Procedure: as §2, §3
# [2] = Chitinase substrate specificity, chitosan as substrate; type: biochemical; conditions: relative to glycol chitin
# Procedure: as §1
# [3] = HPLC analysis of chitin hydrolysis by CpCHI; type: biochemical
# Procedure: Chitin hydrolysis was carried out in a phosphate buffer (100 mM, pH 6) at 30° C. with shaking. The concentrations of chitinase and glycol chitin suspension were 750 ng μL^−1 and 100 μg mL^−1, respectively. The reactions were quenched with 10% (v/v) acetic acid. […] The column was connected to an Agilent Technologies 1100 series HPLC system under the control of a Thermo Finnigan LCQ DECA electrospray mass spectrometer. The mass-to-charge ratios (m/z) of the expected oligosaccharides were selected as follows: Glc-NAc (221.9), (GlcNAc)2 (425.5), (GlcNAc)3 (627.6), (GlcNAc)4 (830.8), (GlcNAc)5 (1034.0), (GlcNAc)6 (1237.2), and (GlcNAc)7 (1440.0).
# [4] = Chitinase activity with glycol chitin as substrate (colorimetric reducing-sugar assay); type: biochemical
# Procedure: as §1
# The optimal pH of the chitiolytic activity of CpCHI was determined by incubating the purified recombinant enzyme (5 μg) at different pH (3-10) at 30° C. for 3 hours using glycol chitin as the substrate. An acetate buffer (100 mM) was used for pH 3-5, a phosphate buffer (100 mM) for pH 6˜7, a Tris-HCl buffer (100 mM) for pH 8, and a glycine-NaOH buffer for pH 9 and 10. The optimal temperature was determined by incubating the purified chitinase (5 μg) at different temperatures (10˜90° C.) at pH 6.0 for 3 hours using glycol chitin as the substrate. The highest activity was calculated as relative activity (RA) 100%.
# Alternaria brassicicola = assay: Inhibition of spore germination; type: cell-based; conditions: 24° C. for 24 hours
# Procedure: Assays were also carried out to examine effects of CpCHI on Alternaria brassicicola, a fungus isolated from cabbages. The fungus was cultured in potato dextrose agar (DIFCO) for 2 weeks. After sporulation, the spores of the fungus were suspended in water to a concentration of 10^4 spores mL^−1. A fungal spore stock (approximately 500 spores) was cultured at 24° C. for 24 hours in the following solutions: (A) H2O, (B) TE buffer (10 mM Tris-HCl pH 7.5, 1 mM EDTA), (C) 5 μM CpCHI in TE buffer, and (D) 10 μM CpCHI in TE buffer. The inhibition of spore germination was examined under a light microscope at 200× amplification (Li et al., 2003, Plant Cell Physiol. 44, 1162-1167). The percentage of germination was calculated from 10 different observations. All experiments were conducted in triplicates.
# E. coli ED2566 = assay: Antibacterial activity, growth suppression (density at 600 nm); type: cell-based; conditions: E. coli ED2566, LB medium
# Procedure: (§4) Experiments were conducted to examine recombinant CpCHI's ability to suppress the growth of E. coli ED2566 or E. coli AD494. Briefly, the E. coli strain was grown at 37° C. in an LB medium with shaking at 225 rpm overnight. Then, the overnight culture was 100× diluted in a fresh LB medium containing 1 μM, 1.5 μM, 2 μM, 2.5 μM, or 3 μM CpCHI. A TE buffer (10 mM Tris-HCl pH7.5, 1 mM EDTA) was used as a control. Changes in density at 600 nm were monitored. The assays were conducts in triplicates and the average were recorded to examine the inhibition of bacterial growth.
# E. coli AD494 = assay: as above; type: cell-based; conditions: E. coli AD494, LB medium
# Procedure: as §4
# [5] = type: physicochemical
# Procedure: The pH stability of recombinant CpCHI was determined. Briefly, purified recombinant CpCHI was incubated in buffers with pH from 3.0 to 10.0 at 30° C. for 3 hours. The residual activity was then determined at a standard condition (30° C. for 3 hours at pH 6.0). The results were averaged from three independent experiments.
# The stability of recombinant CpCHI during long-term storage was examined. […] The enzyme retained more than 60% of its activity for 3 weeks at 30° C. and more than 50% activity for 3 weeks at 37° C. The results were also averaged from three independent experiments.
# [6] = Chitinase substrate specificity, collodial chitin as substrate; type: biochemical; conditions: relative to glycol chitin
# Procedure: as §1
# Sclerotium rolfsii [7] = assay: Disease resistance assay on detached leaves; type: in vivo; conditions: for pathogenesis inhibition: day 4 after inoculation
# Procedure: as §3
# [8] = enzyme preincubated 30 minutes with 10 mM reagent
molecule,measurement,setting,value
O=[N+]([O-])[O-].[Ag+] [AgNO3],reduction / inhibition of CpCHI activity,CpCHI; 10 mM,16.33%
same,Relative activity (%) of CpCHI,CpCHI; [8],83.67 ± 2.52%
O=S(=O)([O-])[O-].[Cu+2] [CuSO4],reduction / inhibition of CpCHI activity,CpCHI; 10 mM,60%
same,Relative activity (%) of CpCHI,CpCHI; [8],40.00 ± 7.2%
O=C(O)CN(CCN(CC(=O)O)CC(=O)O)CC(=O)O [EDTA],Relative activity (%) of CpCHI,CpCHI,93.33 ± 3.06%
same,reduction / inhibition of CpCHI activity,CpCHI,6.67%
[Cl][Fe]([Cl])[Cl] [FeCl3],reduction / inhibition of CpCHI activity,CpCHI; 10 mM,29.33%
same,Relative activity (%) of CpCHI,CpCHI; [8],70.67 ± 3.06%
[Cl][Hg][Cl] [HgCl2],reduction / inhibition of CpCHI activity,CpCHI; 10 mM,completely
same,Relative activity (%) of CpCHI,CpCHI; [8],0%
[Cl-].[K+] [KCl],reduction / inhibition of CpCHI activity,CpCHI; 10 mM,7.67%
same,Relative activity (%) of CpCHI,CpCHI; [8],92.33 ± 1.53%
[Cl][Mn][Cl] [MnCl2],reduction / inhibition of CpCHI activity,CpCHI; 10 mM,64.7%
same,Relative activity (%) of CpCHI,CpCHI; [8],35.33 ± 3.06%
O=S(=O)([O-])[O-].[Zn+2] [ZnSO4],reduction / inhibition of CpCHI activity,CpCHI; 10 mM,62.0%
same,Relative activity (%) of CpCHI,CpCHI; [8],38.00 ± 3.61%
B1,antifungal activity,Phytophthora sp.,great antifungal activity
same,concentration that inhibited growth,Phytophthora sp.,15 µM
same,duration of the inhibited activity,Phytophthora sp.; 15 μM,7 days
same,antifungal activity,Rhizoctonia solani,great antifungal activity
same,concentration that inhibited growth,Rhizoctonia solani,15 µM
same,duration of the inhibited activity,Rhizoctonia solani; 15 μM,7 days
same,antifungal activity,Sclerotium rolfsii [1],great antifungal activity
same,concentration that inhibited growth,Sclerotium rolfsii [1],15 µM
same,duration of the inhibited activity,Sclerotium rolfsii [1]; 15 μM,7 days
same,Relative activity toward chitosan,[2],11% and 11.33 ± 2.52%
same,hydrolyzed products of glycol chitin,[3]; after 1 hour,(GlcNAc)3
same,hydrolyzed products of glycol chitin,[3]; after 2 hours,"(GlcNAc)3, (GlcNAc)2, and (GlcNAc)"
same,hydrolyzed products of glycol chitin,[3]; final products,(GlcNAc)2 and (GlcNAc)
same,broad pH optima,"[4]; 30° C., 3 hours, glycol chitin",5.0-9.0
same,optimal pH for the enzyme activity,"[4]; 30° C., 3 hours, glycol chitin",6.0
same,optimal temperature for the enzyme activity,"[4]; pH 6.0, 3 hours, glycol chitin",30 °C
same,specific activity,"[4]; recombinant protein after dialysis, spectrophotometric assay, glycol chitin",14.8 U mg^−1
same,Relative activity toward glycol chitin,[4]; substrate glycol chitin,100%
same,activity maintained at different temperatures,[4]; temperatures between 10-50° C.,at least 80%
same,inhibition of spore germination,Alternaria brassicicola; 5 μM,50%
same,inhibition of spore germination,Alternaria brassicicola; 10 μM,98%
same,IC50,E. coli ED2566,~2500 nM
same,IC50,E. coli AD494,~2500 nM
same,activity retained during long-term storage,[5]; 3 weeks at 30° C.,more than 60%
same,activity retained during long-term storage,[5]; 3 weeks at 37° C.,more than 50%
same,Relative activity toward collodial chitin,[6],59% and 58.67 ± 5.03%
same,pathogenesis inhibition,Sclerotium rolfsii [7]; 5 μM,about 37%
same,pathogenesis inhibition,Sclerotium rolfsii [7]; 10 μM,~83%
same,pathogenesis inhibition,Sclerotium rolfsii [7]; 15 μM,~98%
same,Percentage of the symptom appearing,"Sclerotium rolfsii [7]; Cabbage detached leaves, 5 μM sprayed",55.33 ± 6.11%
same,Percentage of the symptom appearing,"Sclerotium rolfsii [7]; Cabbage detached leaves, 10 μM sprayed",14.33 ± 5.13%
same,Percentage of the symptom appearing,"Sclerotium rolfsii [7]; Cabbage detached leaves, 15 μM sprayed",1.66 ± 2.88%
same,Percentage of the symptom appearing,"Sclerotium rolfsii [7]; bell pepper detached leaves, 5 μM sprayed",66.67 ± 7.34%
same,Percentage of the symptom appearing,"Sclerotium rolfsii [7]; bell pepper detached leaves, 10 μM sprayed",23.33 ± 7.64%
same,Percentage of the symptom appearing,"Sclerotium rolfsii [7]; bell pepper detached leaves, 15 μM sprayed",3.33 ± 2.77%
same,Percentage of the symptom appearing,"Sclerotium rolfsii [7]; tomato detached leaves, 5 μM sprayed",65 ± 15%
same,Percentage of the symptom appearing,"Sclerotium rolfsii [7]; tomato detached leaves, 10 μM sprayed",13.33 ± 10.41%
same,Percentage of the symptom appearing,"Sclerotium rolfsii [7]; tomato detached leaves, 15 μM sprayed",1.66 ± 1.32%

# Source: patent US7670820B2, “Chitinase and uses thereof” (Academia Sinica, priority 2007, dated 2010)
